The target in this test is recombinant human LOX-1 (61-273aa) (human, UniProt P78380 61-273). The experiment in a line: sandwich ELISA, LOX-1 immobilized, detection by anti-ApoA I antibody. Here is the method: The recombinant human LOX-1 (61-273aa) or protein Dectin-1 belonging to the same family with LOX-1 for the contrast reference was immobilized on the ELISA plate at 4° C. overnight. After washing with PBS, it was blocked by HEPES buffer including 3% BSA (10 mM HEPES, 150 mM NaCl, pH7.4). After washing PBS three times, oxidized HDL, HDL, oxidized LDL and LDL were respectively added thereto, and they were incubated. After washing with PBS, chicken anti-ApoA I monoclonal antibody (chicken monoclonal […]) or HRP-labeled anti-ApoA I polyclonal antibody (sheep polyclonal […]) was added thereto. When chicken anti-ApoA I monoclonal antibody was used, chicken anti-ApoA I monoclonal antibody was added thereto and reacted for 1 hour at room temperature and then it was washed with PBS and secondary antibody: HRP-labeled Donkey anti-chicken IgY was added and incubated for 1 hour at room temperature.
After the antibody response, it was washed with PBS for 5 times. And then, TMB solution was added onto the plate and made it react them at room temperature. After stopping the reaction by 2M sulfuric acid, the absorbency at 450 nm was determined by using SpectraMax 340PC384 (Molecular Devices) to detect the oxidized HDL bound. […]

B1: fusion protein of Fv-type anti-LOX-1 antibody (#10-1) and human ApoA I (31-267aa) (other)
chain: EVKLLESGGGLVQPGGSLKLSCAVSGFDFSRYWMSWVRQAPGKGLEWIGEINPDSSTINFTPSLKDKFIVSRDNAKNTLYLQMSKVRSEDTALYYCARNDVLLGAMDYWGQGTSVTVSSGGGGSGGGGSGGGGSDVLMTQTPLSLPVSLGDQASISCRSSQTIVHSNGKTYLEWYLQKPGQSPKLLIYKVSNRFSGVPDRFSGSGSGTDFTLKISRVEAEDLGVYYCFQGSHVPLTFGAGTKLELKGGGGSGGGGSGGGGSPWDRVKDLATVYVDVLKDSGRDYVSQFEGSALGKQLNLKLLDNWDSVTSTFSKLREQLGPVTQEFWDNLEKETEGLRQEMSKDLEEVKAKVQPYLDDFQKKWQEEMELYRQKVEPLRAELQEGARQKLHELQEKLSPLGEEMRDRARAHVDALRTHLAPYSDELRQRLAARLEALKENGGARLAEYHAKATEHLSTLSEKAKPALEDLRQGLLPVLESFKVSFLSALEEYTKKLNTQ
notes: Expressed from the pEF6-V5-His vector in Expi293 cells, secreted and His-purified; also called chimeric protein; artificial recombinant protein
For B1, the binding result was “binds”.

The values above are taken from patent US12384831 (SHINSHU UNIVERSITY, dated 2025).
